Results on 4 molecules are retold here after US20030172388A1 (University of Texas, published 2003).

The target in assay [1] is T1, MCL1 (Myeloid Cell Leukemia 1) (UniProt Q07820 1-350, limits assumed). Nature of the assay: in vitro pull-down with anti-HA antibody and Dynabeads, [35S]-labelled proteins. The source says: (§1) In vitro pull-down assay. Radiolabeled proteins for use in an in vitro binding assay were generated by a TNT Quick Coupled Transcription/Translation System (Promega, Madison, Wis.) according to the manufacturer's instructions, using [³⁵S]methionine (Amersham-Pharmacia, Piscataway, N.J.) as labeling agent. DNA templates were either circular plasmids or gel-purified PCR products containing a T7 RNA polymerase promoter. The in vitro translated, influenza hemagglutinin-tagged Fortilin (Fortilin-HA) or its mutants and another in vitro translated protein namely, MCL1, Bcl-xL, Bak, Bax or PCNA, were added to Buffer A (50 mM HEPES, pH 7.5, 70 mM KCl, 0.5 mM ATP, 5 mM MgSO₄, 1 mM DTT, 0.001% NP-40, 50 μM MG132, 2 μg/mL BSA, 2 μg/mL aporotinin, 0.5 mM PMSF and protease inhibitor cocktail [Sigma]), and allowed to form complexes at 4° C. for 90 minutes. Fortilin-HA or its mutants were then pulled down with rat anti-HA antibody (Clone 3F10; Roche Molecular Biochemicals, Indianapolis, Ind.) and sheep anti-rat polyclonal antibody conjugated to Dynabeads™ (M480; Dynal USA, Lake Success, N.Y.). Immune complexes were then washed 5 times with Buffer A and once with Buffer B (Buffer A supplemented with 0.01% NP-40). Finally, precipitated proteins were eluted into SDS gel loading buffer (50 mM Tris-Cl, pH 6.8, 100 mM DTT, 2% SDS, 0.1% bromophenol blue, and 10% glycerol), boiled for 5 minutes, subjected to 12% SDS-polyacrylamide gel electrophoresis (SDS-PAGE) and visualized by fluorography and imaging with a phosphoimager system (Bio-Rad, Hercules, Calif.).
T1 sequence (Q07820 whole entry): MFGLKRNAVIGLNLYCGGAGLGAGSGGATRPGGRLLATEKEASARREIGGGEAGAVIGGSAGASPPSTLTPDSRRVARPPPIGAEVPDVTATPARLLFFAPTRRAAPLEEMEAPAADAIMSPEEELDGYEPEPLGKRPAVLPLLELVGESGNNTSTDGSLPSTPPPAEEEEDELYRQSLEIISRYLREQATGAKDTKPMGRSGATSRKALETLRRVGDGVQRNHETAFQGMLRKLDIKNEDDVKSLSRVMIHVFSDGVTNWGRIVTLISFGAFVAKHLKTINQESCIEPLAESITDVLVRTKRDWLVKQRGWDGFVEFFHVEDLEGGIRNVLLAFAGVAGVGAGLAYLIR

The target in assay [2] is T1, MCL1 (Myeloid Cell Leukemia 1). Nature of the assay: in vitro interaction assay with Fortilin deletion mutants.
Source text: as §1, with “Finally, precipitated proteins were eluted into SDS gel loading buffer (50 mM Tris-Cl, pH 6.8, 100 mM DTT, 2% SDS, 0.1% bromophenol blue, and 10% glycerol), boiled for 5 minutes, subjected to 12% SDS-polyacrylamide gel electrophoresis (SDS-PAGE) and visualized by fluorography and imaging with a phosphoimager system (Bio-Rad, Hercules, Calif.).” left out

The target in a further assay is T2, PCNA (UniProt P12004 1-261, limits assumed).
T2 construct: In vitro translated, [35S]Met-labelled
T2 sequence (P12004 whole entry): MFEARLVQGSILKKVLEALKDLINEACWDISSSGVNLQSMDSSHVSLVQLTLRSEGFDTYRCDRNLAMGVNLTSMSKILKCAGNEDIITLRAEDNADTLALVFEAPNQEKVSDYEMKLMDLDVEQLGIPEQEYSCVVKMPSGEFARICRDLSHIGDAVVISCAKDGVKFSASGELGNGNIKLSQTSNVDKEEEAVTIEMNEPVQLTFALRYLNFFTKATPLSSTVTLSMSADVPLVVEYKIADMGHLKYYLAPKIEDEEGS
The experiment in a line: in vitro pull-down with anti-HA antibody and Dynabeads, [35S]-labelled proteins.
Source text: as §1

The target of another assay is T3, Bak (UniProt Q16611 1-211, limits assumed).
T3 construct: In vitro translated, [35S]Met-labelled
T3 sequence (looked up): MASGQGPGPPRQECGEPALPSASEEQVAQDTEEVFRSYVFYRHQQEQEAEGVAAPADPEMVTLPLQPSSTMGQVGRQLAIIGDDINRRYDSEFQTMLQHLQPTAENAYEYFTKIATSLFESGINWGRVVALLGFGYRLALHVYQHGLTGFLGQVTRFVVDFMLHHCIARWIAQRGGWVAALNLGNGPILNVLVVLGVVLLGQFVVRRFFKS
The assay is described as above.
Source text: as §1

Another assay addresses T4, Bax (UniProt Q07812 1-192, limits assumed).
T4 construct: In vitro translated, [35S]Met-labelled
The description is as above.
Source text: as §1

T4 sequence (Q07812 whole entry): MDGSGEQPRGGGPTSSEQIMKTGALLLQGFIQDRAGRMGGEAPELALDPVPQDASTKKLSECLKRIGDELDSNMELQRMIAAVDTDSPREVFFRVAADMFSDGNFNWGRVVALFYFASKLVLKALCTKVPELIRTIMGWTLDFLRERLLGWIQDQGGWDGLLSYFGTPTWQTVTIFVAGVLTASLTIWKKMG

B1: HA-tagged Fortilin deletion mutant, amino acids 5-172 (other, not shown: small tags and cut ends)
chain: RDLISHDEMFSDIYKIREIADGLCLEVEGKMVSRTEGNIDDSLIGGNASAEGPEGEGTESTVITGVDIVMNHHLQETSFTKEAYKKYIKDYMKSIKGKLEEQRPERVKPFMTGAAEQIKHILANFKNYQFFIGENMNPDGMVALLDYREDGVTPYMIFFKDGLEMEKC
notes: Any added start methionine is not described
For B1, in assay [1], the binding result is “binds”.

B2: HA-tagged Fortilin deletion mutant, amino acids 46-172 (other, not shown: small tags and cut ends)
chain: SLIGGNASAEGPEGEGTESTVITGVDIVMNHHLQETSFTKEAYKKYIKDYMKSIKGKLEEQRPERVKPFMTGAAEQIKHILANFKNYQFFIGENMNPDGMVALLDYREDGVTPYMIFFKDGLEMEKC
notes: as for B1
Regarding B2, in assay [2], the binding result is listed as “no binding”.

B3: HA-tagged Fortilin deletion mutant, amino acids 23-172 (other, not shown: small tags and cut ends)
chain: IADGLCLEVEGKMVSRTEGNIDDSLIGGNASAEGPEGEGTESTVITGVDIVMNHHLQETSFTKEAYKKYIKDYMKSIKGKLEEQRPERVKPFMTGAAEQIKHILANFKNYQFFIGENMNPDGMVALLDYREDGVTPYMIFFKDGLEMEKC
notes: as for B1
In the case of B3, in assay [2], the binding result is reported as “no binding”.

B4: influenza hemagglutinin-tagged Fortilin (Fortilin-HA), full-length, amino acids 1-172 (other, not shown: small tags and cut ends)
chain: MIIYRDLISHDEMFSDIYKIREIADGLCLEVEGKMVSRTEGNIDDSLIGGNASAEGPEGEGTESTVITGVDIVMNHHLQETSFTKEAYKKYIKDYMKSIKGKLEEQRPERVKPFMTGAAEQIKHILANFKNYQFFIGENMNPDGMVALLDYREDGVTPYMIFFKDGLEMEKC
notes: also called wild type Fortilin; wild-type fortilin
B4: the binding result is on record as “no binding” in the assay with PCNA, “no binding” with Bak, “binds” in assay [1] and “no binding” with Bax.
